Here are results for two molecules from patent US20210301026A1 (ULTRAHUMAN TWELVE, published 2021).

Where two headings read alike, the source gives them in different places.

In assay [1] the target is T1, monomeric human CSF1R ectodomain protein (human, UniProt P07333 20-517).
T1 construct: also called biotinylated monomeric human CSF1R
Nature of the assay: SPR Biacore, IgG captured, monomeric CSF1R analyte. Background: Surface plasmon resonance follows binding to a sensor surface in real time, without labels.

Assay [2] addresses T2, monomeric cynomolgus monkey CSF1R ectodomain protein (cynomolgus monkey, UniProt P07333 20-517 (human entry)).
T2 construct: also called monomeric cyno CSF1R; Cyno CSF1R
T2 chain: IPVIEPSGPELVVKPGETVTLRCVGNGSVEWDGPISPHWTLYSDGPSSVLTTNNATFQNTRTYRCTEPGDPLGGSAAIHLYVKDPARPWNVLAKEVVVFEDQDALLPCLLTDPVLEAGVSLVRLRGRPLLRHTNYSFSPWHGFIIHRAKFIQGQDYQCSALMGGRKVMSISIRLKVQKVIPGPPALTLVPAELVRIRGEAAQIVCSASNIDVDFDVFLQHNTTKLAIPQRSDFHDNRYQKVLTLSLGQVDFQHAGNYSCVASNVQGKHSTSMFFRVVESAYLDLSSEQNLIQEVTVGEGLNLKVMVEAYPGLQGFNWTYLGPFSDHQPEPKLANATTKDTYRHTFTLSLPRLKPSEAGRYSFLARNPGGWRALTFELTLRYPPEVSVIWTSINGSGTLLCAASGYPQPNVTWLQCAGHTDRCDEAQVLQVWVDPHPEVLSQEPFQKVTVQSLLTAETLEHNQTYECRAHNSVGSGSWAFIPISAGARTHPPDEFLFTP
Nature of the assay: SPR Biacore, IgG captured, monomeric CSF1R analyte.

Assay [3] has as its target T3, human CSF1R, membrane-presented on cells (human, UniProt P07333 20-972).
T3 construct: HEK-293 cells transiently transfected with human CSF1R (flow cytometry); the native receptor on primary human monocytes in the proliferation assay; also called human CSF1R+ HEK-293 cells; CSF1R on primary human CD14+ monocytes
The experiment in a line: flow cytometry on HEK-293 cells expressing human CSF1R, MFI.

Assay [4] has as its target T4, cynomolgus monkey CSF1R human Fc tagged recombinant protein (cynomolgus monkey, UniProt P07333 20-517 (human entry), limits assumed).
T4 construct: also called cyno CSF1R-Fc
T4 chain: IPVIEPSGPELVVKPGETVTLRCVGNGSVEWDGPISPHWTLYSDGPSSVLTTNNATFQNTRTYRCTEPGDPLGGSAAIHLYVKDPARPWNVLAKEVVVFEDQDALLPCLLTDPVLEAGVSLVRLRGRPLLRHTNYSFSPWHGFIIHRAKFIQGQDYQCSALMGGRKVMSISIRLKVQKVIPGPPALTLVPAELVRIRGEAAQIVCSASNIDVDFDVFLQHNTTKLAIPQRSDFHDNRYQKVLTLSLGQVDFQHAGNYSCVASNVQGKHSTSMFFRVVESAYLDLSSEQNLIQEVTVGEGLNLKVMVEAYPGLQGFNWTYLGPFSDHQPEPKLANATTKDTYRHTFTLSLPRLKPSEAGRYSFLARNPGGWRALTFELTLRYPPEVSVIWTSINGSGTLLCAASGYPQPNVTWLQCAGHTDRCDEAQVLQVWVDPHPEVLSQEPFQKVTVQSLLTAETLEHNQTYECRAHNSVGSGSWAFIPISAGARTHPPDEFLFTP
Nature of the assay: direct titration ELISA on coated cyno CSF1R-Fc, IgG4(S228P) format, OD 450 nm. The protocol:
(§1) Binding and cross-reactivity of the lead panel to the recombinant proteins was initially assessed by binding ELISA. The human CSF1R human Fc tagged recombinant protein and the cynomolgus monkey CSF1R human Fc tagged recombinant protein were coated to the surface of MaxiSorp™ flat-bottom 96 well plate at 1 μg/ml. The purified IgG samples were titrated in two fold serial dilutions starting from 500 nM to 0.008 nM and allowed to bind to the coated antigens. The Fabs were detected using mouse anti-c-myc antibody followed by donkey anti-mouse IgG conjugated to horseradish peroxidase. The IgGs were detected using the mouse anti-human IgG conjugated to horseradish peroxidase. Binding signals were visualized with 3,3′,5,5′-Tetramethylbenzidine Substrate Solution (TMB) and the absorbance measured at 450 nm.

Assay [5] has as its target T5, human CSF1R human Fc tagged recombinant protein (human, UniProt P07333 20-517).
T5 construct: also called human CSF1R-Fc
Nature of the assay: direct titration ELISA on coated human CSF1R-Fc, IgG4(S228P) format, OD 450 nm. The procedure:
as §1
In general terms: ELISA stands for enzyme-linked immunosorbent assay.

Assay [6] concerns the target T1, monomeric human CSF1R ectodomain protein. Nature of the assay: AlphaScreen competition with mu0301 IgG4(S228P) for biotinylated monomeric human CSF1R.
The target is the same in assay [7]. The experiment in a line: SPR Biacore, IgG captured, monomeric CSF1R analyte. This is another data set of the same source.
The target of assay [8] is T2, monomeric cynomolgus monkey CSF1R …. The experiment in a line: SPR Biacore, IgG captured, monomeric CSF1R analyte.
Another assay addresses T6, human insulin (human, UniProt P01308 25-54; P01308 90-110, limits assumed).
T6 construct: Coated antigen of the polyreactivity ('PK-risk indicator') ELISA
Nature of the assay: ELISA on human insulin (development risk, polyreactivity), binding score.

Assay [9] concerns the target T4, cynomolgus monkey CSF1R human Fc tagged …. Nature of the assay: direct titration ELISA on coated cyno CSF1R-Fc, IgG4(S228P) format, OD 450 nm. The procedure:
as §1

For assay [10], the target named is T2, monomeric cynomolgus monkey CSF1R …. Nature of the assay: SPR Biacore; KD on monomeric cyno CSF1R against KD of the same antibody on monomeric human CSF1R as reference. The procedure:
Affinity (KD) of purified IgGs was determined via SPR with antigen in-solution on a Biacore 3000 (GE). A mouse anti-human antibody (CH1 specific) was immobilized on a CM5 Sensor Chip to a level of 2000 RU in acetate buffer at pH 4.5 using amine coupling following the Wizard instructions for two channels. One channel was used for background signal correction. The standard running buffer HBS-EP pH 7.4 was used. Regeneration was performed with a single injection of 10 μl of 10 mM Glycine at pH 1.5 at 20 μl/minute. IgG samples were injected for 2 minutes at 50 nM at 30 μl/min followed by and off-rate of 60 seconds. The monomeric ectodomain protein (human CSF1R or cynomolgus monkey CSF1R) was injected in two fold serial dilutions from 100 nM down to 3.1 nM, for 2 minutes at 30 μl/min followed by an off-rate of 300 seconds. The obtained sensorgrams were analysed using the Biacore 3000 evaluation (BIAevaluation) software. The KD was calculated by simultaneous fitting of the association and dissociation phases to a 1:1 Langmuir binding model.

T6 sequence (P01308 25-54 limits assumed, chain 1 of 2): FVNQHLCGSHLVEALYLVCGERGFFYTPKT
T6 sequence (P01308 90-110 limits assumed, chain 2 of 2): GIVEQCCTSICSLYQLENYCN

B1: 26B07 (antibody, human IgG4, V domains shown)
VH: QVQLVQSGAEVKKPGSSVKVSCKASGYTFSSYYMIWVRQAPGQGLEWMGDINPYNGGANYAQKFQGRVTITADESTSTAYMELSSLRSEDTAVYYCAREGPYFSNLYVMDYWGQGTLVTVSS
VL: EIVLTQSPATLSLSPGERATLSCRASQSVEYQGDNYLNWYQQKPGQAPRLLIYAASNRATGIPARFSGSGSGTDFTLTISSLEPEDFAVYYCQLSNEDLLTFGGGTKVEIK
notes: Library-derived clone, tested as human IgG4(S228P)/Ckappa IgG; framework residue limits counted on the grafts
The term Kd denotes the equilibrium constant for the complex coming apart. The term koff denotes a measure of how fast the partners let go of each other. As a reminder, the kon is a measure of how fast the partners come together. By EC50 (read off the curve) is commonly meant the midpoint of the concentration-response curve. For orientation: IC50 means the concentration at which inhibition is half-maximal. For the molecule B1, the Kd in [1] was found to be 0.29 nM; in assay [2], 0.85 nM. In addition, the koff in [1] was 0.00042 s⁻¹; in assay [2], 0.00026 s⁻¹. The kon was 1.5e+06 M⁻¹ s⁻¹ in assay [1] and 310000 M⁻¹ s⁻¹ in assay [2]. In addition, the “EC50 (read off the curve)” value is roughly 1 nM in assay [3], roughly 0.09 nM in [4] and roughly 0.08 nM in assay [5]. The IC50 in [6] came to 2.56 nM.

B2: humanized anti-CSF1R antibody 0301 (hu0301) (antibody, human IgG4, V domains shown)
VH: QVQLVQSGAEVKKPGSSVKVSCKASGYTFTDNYMIWVRQAPGQGLEWMGDINPYNGGTTFNQKFKGRVTITADKSTSTAYMELSSLRSEDTAVYYCARESPYFSNLYVMDYWGQGTLVTVSS
VL: EIVLTQSPATLSLSPGERATLSCKASQSVDYDGDNYMNWYQQKPGQAPRLLIYAASNLESGIPARFSGSGSGTDFTLTISSLEPEDFAVYYCHLSNEDLSTFGGGTKVEIK
notes: also called mAb-1
For the molecule B2, the Kd in assay [1] came to 0.21 nM; in assay [2], 0.66 nM; in assay [7] it was 0.21 nM; in assay [8], 0.66 nM. The off-rate (koff) in assay [1] was 0.00047 s⁻¹; in assay [2], 0.00033 s⁻¹; in assay [7], 0.00047 s⁻¹; in [8], 0.00033 s⁻¹. Besides, the kon stood at 2.3e+06 M⁻¹ s⁻¹ in assay [1], 500000 M⁻¹ s⁻¹ in assay [2], 2.3e+06 M⁻¹ s⁻¹ in assay [7] and 500000 M⁻¹ s⁻¹ in [8]. Also, the “EC50 (read off the curve)” value is roughly 1 nM in assay [3], roughly 0.08 nM in assay [4] and roughly 0.07 nM in assay [9]. In addition, the binding result with human insulin was “no binding”. Further, the IC50 in [6] was found to be 2.38 nM. The molecule also returned a human/cyno affinity differential in [10] greater than 3 fold.
